Laboratory results reported in patent EP4667491A1 (Genome and Company, dated 2025).
Where two headings read alike, the source gives them in different places.

T1: human CNTN4 expressed on the cell surface (human, UniProt Q8IWV2 19-1000)
T1 construct: whole, on cells; also called human CNTN4 cell
T1 sequence (looked up): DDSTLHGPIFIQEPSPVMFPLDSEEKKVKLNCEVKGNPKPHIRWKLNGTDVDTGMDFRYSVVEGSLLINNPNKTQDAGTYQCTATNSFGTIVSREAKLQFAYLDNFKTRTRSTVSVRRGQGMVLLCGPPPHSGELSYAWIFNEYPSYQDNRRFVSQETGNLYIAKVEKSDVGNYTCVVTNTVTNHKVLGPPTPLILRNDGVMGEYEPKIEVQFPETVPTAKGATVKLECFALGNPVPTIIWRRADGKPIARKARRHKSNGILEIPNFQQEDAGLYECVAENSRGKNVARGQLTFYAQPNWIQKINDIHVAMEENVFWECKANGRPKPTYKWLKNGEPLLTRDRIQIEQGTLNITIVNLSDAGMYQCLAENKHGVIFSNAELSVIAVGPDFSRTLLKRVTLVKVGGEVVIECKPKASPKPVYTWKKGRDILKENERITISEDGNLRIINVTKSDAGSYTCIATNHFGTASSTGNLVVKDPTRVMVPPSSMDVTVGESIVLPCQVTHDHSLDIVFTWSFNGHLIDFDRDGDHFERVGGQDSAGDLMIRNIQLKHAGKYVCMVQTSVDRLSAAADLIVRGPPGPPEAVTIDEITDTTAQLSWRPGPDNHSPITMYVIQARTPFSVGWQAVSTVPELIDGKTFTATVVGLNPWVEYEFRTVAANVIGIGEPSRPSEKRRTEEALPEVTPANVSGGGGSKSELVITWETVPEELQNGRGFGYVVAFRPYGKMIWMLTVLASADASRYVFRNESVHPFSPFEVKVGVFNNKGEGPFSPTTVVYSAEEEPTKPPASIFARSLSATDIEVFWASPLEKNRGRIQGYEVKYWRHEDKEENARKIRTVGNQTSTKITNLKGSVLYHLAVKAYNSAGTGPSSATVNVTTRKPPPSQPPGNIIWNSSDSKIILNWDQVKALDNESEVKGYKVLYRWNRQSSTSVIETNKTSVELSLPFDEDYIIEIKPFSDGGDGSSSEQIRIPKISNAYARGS

T2: Human CNTN4 (His-tagged) (human, UniProt Q8IWV2 19-1000, limits assumed)
T2 construct: also called human CNTN4 protein; not shown: His tag
T2 sequence (looked up): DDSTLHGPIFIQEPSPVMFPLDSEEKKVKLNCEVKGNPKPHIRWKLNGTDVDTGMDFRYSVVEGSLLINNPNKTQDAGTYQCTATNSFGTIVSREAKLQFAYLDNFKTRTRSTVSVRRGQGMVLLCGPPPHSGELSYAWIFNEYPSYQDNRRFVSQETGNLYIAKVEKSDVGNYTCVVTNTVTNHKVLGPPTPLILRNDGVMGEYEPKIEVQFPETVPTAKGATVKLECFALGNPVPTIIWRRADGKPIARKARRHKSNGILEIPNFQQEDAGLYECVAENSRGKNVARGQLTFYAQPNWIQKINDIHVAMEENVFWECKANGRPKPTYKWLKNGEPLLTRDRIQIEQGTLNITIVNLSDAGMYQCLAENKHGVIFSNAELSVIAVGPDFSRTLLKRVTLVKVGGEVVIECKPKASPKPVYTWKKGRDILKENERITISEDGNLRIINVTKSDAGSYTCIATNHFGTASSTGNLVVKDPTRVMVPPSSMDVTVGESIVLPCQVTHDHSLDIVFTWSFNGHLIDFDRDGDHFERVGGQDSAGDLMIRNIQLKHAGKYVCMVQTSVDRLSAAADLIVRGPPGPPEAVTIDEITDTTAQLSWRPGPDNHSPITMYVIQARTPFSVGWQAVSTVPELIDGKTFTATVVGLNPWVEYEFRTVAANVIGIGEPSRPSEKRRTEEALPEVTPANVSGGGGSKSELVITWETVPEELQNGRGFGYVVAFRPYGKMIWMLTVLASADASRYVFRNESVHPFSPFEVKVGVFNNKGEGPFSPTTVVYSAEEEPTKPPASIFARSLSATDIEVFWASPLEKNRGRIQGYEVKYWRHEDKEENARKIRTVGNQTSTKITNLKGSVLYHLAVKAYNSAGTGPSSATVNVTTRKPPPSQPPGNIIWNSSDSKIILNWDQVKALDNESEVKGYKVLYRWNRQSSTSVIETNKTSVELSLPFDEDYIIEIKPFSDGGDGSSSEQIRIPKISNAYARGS


Columns and labels:
[1] = molecular target: T1, human CNTN4 expressed on the cell …; experiment: flow cytometry; IgG on human CNTN4-overexpressing HEK293 cells
[2] = molecular target: T1, human CNTN4 expressed on the cell …; experiment: as above; remark: listed apart in the source
Human CNTN4 (His-tagged) [3] = molecular target: T2, Human CNTN4 (His-tagged); experiment: ELISA; His-tagged human CNTN4 captured by anti-His antibody, anti-human IgG-HRP
Human CNTN4 (His-tagged) [4] = molecular target: T2, Human CNTN4 (His-tagged); experiment: as above; remark: listed apart in the source
Human CNTN4 (His-tagged) [5] = molecular target: T2, Human CNTN4 (His-tagged); experiment: SPR; IgG captured on CM5 chip, His-tagged human CNTN4 as analyte, 1:1 fit

| Binder | EC50 [1] [pM] | TOP MFI [1] [MFI] | EC50 [2] [pM] | EC50 (Human CNTN4 (His-tagged) [3]) [pM] | EC50 (Human CNTN4 (His-tagged) [4]) [pM] | Kd (Human CNTN4 (His-tagged) [5]) [pM] |
| --- | --- | --- | --- | --- | --- | --- |
| A114-IgG antibody (antibody, V domains shown, VH fused to CH1, hinge, CH2 and CH3 of human IgG4 (S228P); also called A114-IgG Ab; Al14-IgG Ab) VH: not shown VL: ELTQDPAVSVALGQTVRITCSGSSGSYGWYQQKPGQAPVLVIYDNTNRPSGIPDRFSGSSSGNTASLTITGAQAEDEADYYCGGYWGSTDVFGGGTKLTVL | 262 | 470 | 539 | 129 | – | – |
| A108-IgG antibody (antibody, V domains shown, VH fused to CH1, hinge, CH2 and CH3 of human IgG4 (S228P); also called A108-IgG Ab) VH: not shown VL: ELTQDPAVSVALGQTVRITCSGSSGSYGWYQQKPGQAPVLVIYDNTNRPSGIPDRFSGSSSGNTASLTITGAQAEDEADYYCGGYDGSTDVFGGGTKLTVL | 74 | 356 | – | 34 | – | – |
| A102-IgG antibody (antibody, V domains shown, VH fused to CH1, hinge, CH2 and CH3 of human IgG4 (S228P); also called A102-IgG Ab) VH: not shown VL: ELTQDPAVSVALGQTVRITCSGSSGSYGWYQQKPGQAPVLVIYDNTNRPSGIPDRFSGSSSGNTASLTITGAQAEDEADYYCGGYDGSTDVFGGGTKLTVL | 66 | 328 | – | 57 | – | – |
| A109-IgG antibody (antibody, V domains shown, VH fused to CH1, hinge, CH2 and CH3 of human IgG4 (S228P); also called A109-IgG Ab) VH: not shown VL: ELTQDPAVSVALGQTVRITCSGSSGSYGWYQQKPGQAPVLVIYDNTNRPSGIPDRFSGSSSGNTASLTITGAQAEDEADYYCGGYDGSTDVFGGGTKLTVL | 82 | 357 | – | 41 | – | – |
| A103-IgG antibody (antibody, V domains shown, VH fused to CH1, hinge, CH2 and CH3 of human IgG4 (S228P); also called A103-IgG Ab) VH: not shown VL: ELTQDPAVSVALGQTVRITCSGSSGSYGWYQQKPGQAPVLVIYDNTNRPSGIPDRFSGSSSGNTASLTITGAQAEDEADYYCGGYDGSTDVFGGGTKLTVL | 90 | 378 | – | 31 | – | – |
| A105-IgG antibody (antibody, V domains shown, VH fused to CH1, hinge, CH2 and CH3 of human IgG4 (S228P); also called A105-IgG Ab) VH: not shown VL: ELTQDPAVSVALGQTVRITCSGSSGSYGWYQQKPGQAPVLVIYDNTNRPSGIPDRFSGSSSGNTASLTITGAQAEDEADYYCGGYDGSTDVFGGGTKLTVL | 234 | 454 | – | 153 | – | – |
| A112-IgG antibody (antibody, V domains shown, VH fused to CH1, hinge, CH2 and CH3 of human IgG4 (S228P); also called A112-IgG Ab) VH: not shown VL: ELTQDPAVSVALGQTVRITCSGRSGSYGWYQQKPGQAPVLVIYDNTNRPSGIPDRFSGSSSGNTASLTITGAQAEDEADYYCGGYDGSTDVFGGGTKLTVL | 204 | 422 | – | 75 | – | – |
| A106-IgG antibody (antibody, V domains shown, VH fused to CH1, hinge, CH2 and CH3 of human IgG4 (S228P); also called A106-IgG Ab) VH: not shown VL: ELTQDPAVSVALGQTVRITCSGSSGSYGWYQQKPGQAPVLVIYDNTNRPSGIPDRFSGSSSGNTASLTITGAQAEDEADYYCGGYDGSTDVFGGGTKLTVL | 86 | 336 | – | 42 | – | – |
| A104-IgG antibody (antibody, V domains shown, VH fused to CH1, hinge, CH2 and CH3 of human IgG4 (S228P); also called A104-IgG Ab) VH: not shown VL: ELTQDPAVSVALGQTVRITCSGSSGSYGWYQQKPGQAPVLVIYDNTNRPSGIPDRFSGSSSGNTASLTITGAQAEDEADYYCGGYDGSTDVFGGGTKLTVL | 109 | 358 | – | 69 | – | – |

Continued, values first:

| EC50 [1] [pM] | TOP MFI [1] [MFI] | EC50 [2] [pM] | EC50 (Human CNTN4 (His-tagged) [3]) [pM] | EC50 (Human CNTN4 (His-tagged) [4]) [pM] | Kd (Human CNTN4 (His-tagged) [5]) [pM] | Binder |
| --- | --- | --- | --- | --- | --- | --- |
| – | – | – | – | 35 | – | A202-IgG antibody (antibody, V domains shown, VH fused to CH1, hinge, CH2 and CH3 of human IgG4 (S228P); also called A202-IgG Ab) VH: not shown VL: ELTQDPAVSVALGQTVRITCSGRSGSYGWYQQKPGQAPVLVIYDNTNRPSGIPDRFSGSSSGNTASLTITGAQAEDEADYYCGGYWGSTDVFGGGTKLTVL |
| – | – | – | – | 15 | 663 | A204-IgG antibody (antibody, V domains shown, VH fused to CH1, hinge, CH2 and CH3 of human IgG4 (S228P); also called A204-IgG Ab) VH: not shown VL: ELTQDPAVSVALGQTVRITCSGRSGSYGWYQQKPGQAPVLVIYDNTNRPSGIPDRFSGSSSGNTASLTITGAQAEDEADYYCGGYWGSTDVFGGGTKLTVL |
| – | – | – | – | 26 | 662 | A209-IgG antibody (antibody, V domains shown, VH fused to CH1, hinge, CH2 and CH3 of human IgG4 (S228P); also called A209-IgG Ab; A209-TgG Ab) VH: not shown VL: ELTQDPAVSVALGQTVRITCSGRSGSYGWYQQKPGQAPVLVIYDNTNRPSGIPDRFSGSSSGNTASLTITGAQAEDEADYYCGGYWGSTDVFGGGTKLTVL |
| – | – | – | – | 27 | 702 | A206-IgG antibody (antibody, V domains shown, VH fused to CH1, hinge, CH2 and CH3 of human IgG4 (S228P); also called A206-IgG Ab) VH: not shown VL: ELTQDPAVSVALGQTVRITCSGRSGSYGWYQQKPGQAPVLVIYDNTNRPSGIPDRFSGSSSGNTASLTITGAQAEDEADYYCGGYWGSTDVFGGGTKLTVL |
| – | – | – | – | 33 | 1180 | A217-IgG antibody (antibody, V domains shown, VH fused to CH1, hinge, CH2 and CH3 of human IgG4 (S228P); also called A217-IgG Ab) VH: not shown VL: ELTQDPAVSVALGQTVRITCSGSSGSYGWYQQKPGQAPVLVIYDNTNRPSGIPDRFSGSSSGNTASLTITGAQAEDEADYYCGGYWGSTDVFGGGTKLTVL |
| – | – | 316 | – | 33 | 709 | A211-IgG antibody (antibody, V domains shown, VH fused to CH1, hinge, CH2 and CH3 of human IgG4 (S228P); also called A211-IgG Ab) VH: not shown VL: ELTQDPAVSVALGQTVRITCSGRSGSYGWYQQKPGQAPVLVIYDNTNRPSGIPDRFSGSSSGNTASLTITGAQAEDEADYYCGGYWGSTDVFGGGTKLTVL |
